Measured values from patent US20090191208A1 (INOTEK PHARMACEUTICALS, published 2009).

B1: human mAb 763 (antibody, V domains shown)
VH: EVQLLESGGALVQPGGSLRLSCAASGFTFSSYAMSWARQAPGKGLEWLSGISGSADNTYYAESVKGRFTTSRDNSMNMLYLQMNSLRDEDTAFYYCAKGDQDRGPLEFWGQGTLVTVSS
VL: SYELTQPPSVSVSPGQTARITCSGDALPKQYAYWYQQKPGQAPVLLIYQDTKRPSGIPERFSGSSSGTTVALTISGVQAEDEADYYCQSADSNDSYYVFGTGTKVTVL
B2: murine mAb 741 (antibody, V domains shown)
VH: QVQLQQSGAELVGPGASVTLSCKASGHTFTDYEMHWVKQTPVHGLEWIGGIDPETGGTAYNQKLKGEATLTADKSSNTAYMELRSLTSEDSAVYYCTIYLDYWGRGTTLTVSS
VL: QIVLTQSPAIMSASPGEKVTMTCSANSSINYMHWYQQKPGTSPKRWIYDTTILASGVPARFSGSGSGTSYSLTISSMEAEDAATYYCHQRSSYPFTFGSGTKLEIK
notes: also called mouse control antibody

Legend:
Salmonella flagellin = biological target: T1, Salmonella flagellin (Salmonella, UniProt P06177 2-505, limits assumed); assay: BIACore (SPR); Salmonella flagellin
T1 sequence: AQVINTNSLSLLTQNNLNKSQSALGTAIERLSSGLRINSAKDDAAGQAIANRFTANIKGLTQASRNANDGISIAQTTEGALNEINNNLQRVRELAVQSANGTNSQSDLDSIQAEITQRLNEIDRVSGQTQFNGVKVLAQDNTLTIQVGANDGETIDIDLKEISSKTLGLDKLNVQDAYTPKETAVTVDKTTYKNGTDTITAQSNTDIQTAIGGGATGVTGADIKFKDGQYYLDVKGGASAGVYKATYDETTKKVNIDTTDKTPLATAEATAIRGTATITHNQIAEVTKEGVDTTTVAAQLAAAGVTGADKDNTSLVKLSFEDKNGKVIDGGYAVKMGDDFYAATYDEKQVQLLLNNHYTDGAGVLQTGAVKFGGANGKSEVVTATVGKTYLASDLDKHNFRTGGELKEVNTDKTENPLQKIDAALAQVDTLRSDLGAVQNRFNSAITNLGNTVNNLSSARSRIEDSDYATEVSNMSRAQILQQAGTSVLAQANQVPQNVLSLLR

Pseudomonas flagellin = biological target: T2, Pseudomonas flagellin (Pseudomonas, UniProt P21184 2-394); assay: BIACore (SPR); Pseudomonas flagellin
T2 chain: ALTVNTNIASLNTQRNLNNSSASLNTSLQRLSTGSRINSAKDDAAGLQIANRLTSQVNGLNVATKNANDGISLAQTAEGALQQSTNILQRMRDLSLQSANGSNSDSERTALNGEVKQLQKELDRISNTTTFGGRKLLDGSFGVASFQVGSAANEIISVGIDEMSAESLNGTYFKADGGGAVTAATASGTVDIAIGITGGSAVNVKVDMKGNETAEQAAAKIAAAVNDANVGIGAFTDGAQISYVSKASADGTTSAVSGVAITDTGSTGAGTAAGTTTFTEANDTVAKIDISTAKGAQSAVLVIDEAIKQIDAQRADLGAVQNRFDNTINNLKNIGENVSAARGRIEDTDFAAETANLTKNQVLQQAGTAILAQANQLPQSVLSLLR

[1] = biological target: T3, recombinant SM flagellin protein (a/a 1-156) (Salmonella muenchen, UniProt P06177 1-156); assay: ELISA of hybridoma supernatants for anti-SM flagellin reactivity
T3 construct: The antigen is amino acids 1-156 of S. muenchen flagellin, expressed in E. coli from pET 30C behind the His tag; also called recombinant S. muenchen flagellin; fusion protein; not shown: N-terminal His tag and vector-encoded residues of pET 30C
T3 sequence: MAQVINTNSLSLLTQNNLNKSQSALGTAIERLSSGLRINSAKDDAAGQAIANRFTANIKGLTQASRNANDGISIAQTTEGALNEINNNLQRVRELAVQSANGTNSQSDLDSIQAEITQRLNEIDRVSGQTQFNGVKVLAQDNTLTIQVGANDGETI

[2] = biological target: T4, Salmonella muenchen Flagellin (supplied by Inotek) (Salmonella muenchen, UniProt P06177 2-505); assay: competition ELISA on plate-coated S. muenchen flagellin; competitor biotinylated mAb 741 at 0.6 µg/ml; mouse control antibody
T4 sequence: T1 sequence

| Binder | Kd (Salmonella flagellin) | Kd (Pseudomonas flagellin) | binding result [1] | IC50 [2] |
| --- | --- | --- | --- | --- |
| B1 | ~0.1 nM | ~1000 nM | binds | – |
| B2 | – | – | – | 1.9 µg/mL |
